# Source: patent US11945858B2, “Antibodies and antibody fragments against HNAV1.7 channel and their use in pain and cancer indications” (NATIONAL RESEARCH COUNCIL OF CANADA, priority 2018, dated 2024)
# “Also recorded” adds a separate entry of the source.
# B1: DI-D: anti-hNav1.7 VHH from phage-displayed LAC-M naïve library; SEQ ID NO: 38 (protein)
# VHH: QVKLEESGGGLVQPGGSLKLSCVASGFAFSSAPMDWVRKAPGKDVEWLSTIESDQDHTIYYANSVKGRFTISRDDVQNILYLQMNDLKIEDTATYYCQKRGEKKTRGQGTQVTVSS
# modifications: DI-D
# What was measured:
# [1] = tested on: CFA-induced thermal hyperalgesia; experiment: Hargreaves Model of Hyperalgesia in rats; type: in vivo, rat; settings: for Percentage of maximum possible effect (% MPE): 4 h (FIG. 27B)
# Description: Hargreaves Model of Hyperalgesia in rats. Rats aged 4-6 weeks (weight range, 180-220 g) were used for intraplantar (ipl) administrations of various antibodies and evaluation of their efficacy in the Hargreaves model of inflammatory pain. Chronic inflammatory pain is induced by injecting a low volume (50 μl) of complete Freund's adjuvant (CFA; heat-killed M. tuberculosis—Sigma, St. Louis, Mo.—suspended in oil:saline 2:1 emulsion) into the right hind paw. The paw withdrawal latency in response to the application of a radiant stimulus onto the plantar surface of both right and left paw was measured using the plantar Analgesia Meter equipment for paw stimulation (IITC Life Science, Woodland Hills, Calif.). The time taken by the animal to respond by licking or flicking its paw is interpreted as positive response (paw withdrawal latency). After 48 h of the CFA injection, the baseline for latency paw withdrawal was measured and the mAbs tested. […] A cut-off time (20 sec) is established at the end of which the heat source shuts off automatically to avoid tissue damage. Animals were kept (randomized) one per cage and staff performing pain experiments are blinded to the content of injectable compounds. Percentage of maximum possible effect (% MPE) was calculated using the formula % MPE=(Test Latency−Baseline Latency)×100/(Cut-off−Baseline Latency).
# FC5 = experiment: Surface Plasmon Resonance for VHH antibodies, immobilized FC5; type: binding; settings: SPR; 25 C
# FC5, sequence (as listed by the source): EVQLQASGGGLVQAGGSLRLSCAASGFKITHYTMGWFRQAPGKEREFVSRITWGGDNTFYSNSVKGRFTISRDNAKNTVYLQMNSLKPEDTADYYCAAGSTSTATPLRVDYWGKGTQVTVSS
# Description: (§1) Surface Plasmon Resonance for VHH antibodies. For SPR experiments, IMAC-purified VHHs DI-D, DI-4, DI-16, DI-28 and DI-48 were passed through a Superdex 75 (GE Healthcare) column for SEC purification in HBS-EP+buffer (10 mM HEPES, pH 7.4, containing 150 mM NaCl, 3 mM EDTA and 0.05% P20), connected to an AKTAPurifier (GE Healthcare) at a flow rate of 1 ml/min. Monomeric VHH fractions were collected and protein concentration determined by measuring A280 measurement. Using a Biacore T200 instrument (GE Healthcare), approximately 500-1000 RUs of FC5DIE3IR, FC5 and an irrelevant VHH (2A3-H4) were immobilized on a CM5 Series S sensor chip (GE Healthcare) at pH 4.0 using standard amine coupling according to the manufacturer's instructions (GE Healthcare). […] Surfaces were regenerated by washing with a 120 s pulse of 10 mM glycine pH 1.5. Data were analyzed with Biacore T200 Software v 3.0 and affinities determined using steady state binding or a 1:1 binding model.
# [2] = tested on: FC5DIIIDIR (extracellular loop DIII of the hNav1.7 channels grafted to FC5 scaffold); experiment: Phage ELISA on FC5DIIIDIR; type: binding, human
# 2A3-H4 = experiment: Surface Plasmon Resonance for VHH antibodies, immobilized irrelevant VHH 2A3-H4; type: binding; settings: SPR; 25 C
# Description: as §1
# VHH FC5 = experiment: Phage ELISA on VHH FC5; type: binding
# VHH FC5, sequence (as listed by the source): as above
# Description: FIG. 25A Phages were rescued from individual colonies, selected from the fourth round of panning and grown overnight at 37° C. Wells of a Nunc microtiter plate were coated with FC5DIE3IR and FC5 proteins at 5 μg/ml in PBS. After blocking, 100 μl of phage supernatants (from clones A-H) were added to the respective wells followed by incubation for 1 h at room temperature and addition of anti-M13-HRP conjugate. Binding was detected with TMB substrate and A450 was measured using an ELISA plate reader. As shown, six positive clones (DI-A, DI-B, DI-C, DI-D, DI-E and DI-H), having a signal of at least 3× background, were identified by phage-ELISA.
# Additional rounds (up to 3) of panning were performed by coating the ELISA plate with the same proteins and using the amplified phages after each round of panning as described above. After four rounds of panning, 77 randomly picked colonies were grown and subjected to monoclonal phage ELISA screening as described previously (Arbabi-Ghahroudi et al., 2009) except that 5 μg/ml of FC5DIE3IR and FC5 VHH (the negative control) were coated onto a microtiter plate. All positive clones specifically binding to FC5DIE3IR were sequenced and unique VHH sequences were selected for sub-cloning, large-scale expression, and purification. A total of 6 VHHs specific to FC5DIE3IR were isolated. […]
# FC5DIE3IR = biological target: T1, FC5DIE3IR (Homo sapiens, UniProt Q15858); experiment: Surface Plasmon Resonance for VHH antibodies, immobilized FC5DIE3IR; type: binding; settings: SPR
# T1 construct: The supernatant was collected and loaded on a 5 ml MabSelect™ SuRe™ column; made in house; host or cells: CHO-3E7 (transient, pTT5 vector), purified from supernatant
# Description: as §1
# hNav1.7 channels = hNav1.7 channels (Homo sapiens, UniProt Q15858, W1161R); experiment: Patch-clamp whole-cell recordings in hNav1.7-HEK293 cells; type: cell-based
# [3] = tested on: OD1-evoked Nav1.7-mediated spontaneous pain behaviours; type: in vivo, mouse; settings: 50 μg VHH
# [4] = −20 mV, after antibody application (1 μM)
molecule,measurement,setting,value
B1,Latency paw withdrawal,"[1]; 50 μg intraplantar, 4 h",8.36 ± 0.53 s
same,Percentage of maximum possible effect (% MPE),[1]; 50 μg intraplantar,21.59%±4.05
same,Latency paw withdrawal,"[1]; 100 μg intraplantar, 1 h",13.35 ± 0.44 s
same,Latency paw withdrawal,"[1]; 100 μg intraplantar, 2 h",11.40 ± 0.69 s
same,Latency paw withdrawal,"[1]; 100 μg intraplantar, 4 h",11.78 ± 0.50 s
same,Percentage of maximum possible effect (% MPE),[1]; 100 μg intraplantar,45.19%±4.40
same,"Binding to immobilized FC5 (comment, in words)",FC5,trace amounts of binding; also recorded: Weak/residual binding
same,Binding of the phage to FC5DIIIDIR (in words),[2],did not bind
same,"Binding to immobilized 2A3-H4 (comment, in words)",2A3-H4,No binding
same,Binding of the phage to VHH FC5 (in words),VHH FC5,did not bind
same,"Binding to immobilized FC5DIE3IR (comment, in words)",FC5DIE3IR,clear binding; also recorded: binds specifically
same,Reduction currents (%),hNav1.7 channels; 1 μM,11.7%±5.8
same,Time constant of the block of the hNav1.7 currents (effect onset),hNav1.7 channels; 1 μM,113 ± 11 s
same,Voltage-dependence of activation (shift V1/2 activation),hNav1.7 channels; 1 μM,−6.1±1.0 mV
same,Voltage-dependence of the steady-state fast inactivation (shift V1/2 inactivation),hNav1.7 channels; 1 μM,−6.8±1.5 mV
same,"hNav1.7 current remaining, % of control","hNav1.7 channels; 1 μM, 500 sec recording (FIG. 26B)",approx. 91%
same,"Onset time of the effect (exponential fit of the current decay, T)","hNav1.7 channels; 1 μM, single time-course recording of the figure",150 s
same,Reduction currents (%),hNav1.7 channels; 2 μM,15.0%±6.9
same,Time constant of the block of the hNav1.7 currents (effect onset),hNav1.7 channels; 2 μM,200 ± 45 s
same,Reduction currents (%),hNav1.7 channels; 3 μM,24.1%±5.6
same,Effect on hNav1.7 currents (in words),"hNav1.7 channels; example recordings, 1-3 μM",reduced hNav1.7 current in a dose dependent manner
same,Efficacy (degree of maximum inhibition),hNav1.7 channels; resting/closed state,27.4±5. %
same,Fast inactivation (time constant),hNav1.7 channels; [4],1.29 ± 0.30 ms
same,Time-to-peak,hNav1.7 channels; [4],1.64 ± 0.37 ms
same,Effect on spontaneous pain behaviours evoked by OD1 (in words),[3],reversed spontaneous pain behaviours
same,Time spent in pain behaviors (saline plus OD1 = 100%),"[3]; injected 60 minutes prior to OD1, 20 min after the injection",44.33%±8.8
